In the supplement of paper PMC9112550, “Optimization of the antimicrobial peptide Bac7 by deep mutational scanning” (BMC Biology, 2022):

system: Escherichia coli TOP10; assay: shrunken log2 fold change of peptide-encoding DNA abundance (4.5 h post-induction vs induction); higher = less antimicrobial activity (less host growth inhibition); settings: time post-induction: 4.5 h; library: site-saturation at positions 5, 18, 19, 20
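Note: peptides expressed intracellularly from a pBAD plasmid library in pooled LB shake-flask culture, induced with 0.3% L-arabinose, DNA abundance read by NGS, three biological replicates, DESeq2 with apeglm shrinkage.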

| Sequence | shrunken log2 fold change |
| --- | --- |
| RRIRTRPPRLPRPRPRPLYTPRP | -0.322 |
| RRIRTRPPRLPRPRPRPLYWPRP | -0.559 |
| RRIRTRPPRLPRPRPRPMCLPRP | 0.0631 |
| RRIRTRPPRLPRPRPRPMDQPRP | 0.0595 |
| RRIRTRPPRLPRPRPRPMFKPRP | -0.122 |
| RRIRTRPPRLPRPRPRPMFVPRP | -0.215 |
| RRIRTRPPRLPRPRPRPMGAPRP | -0.0569 |
| RRIRTRPPRLPRPRPRPMGCPRP | -0.145 |
| RRIRTRPPRLPRPRPRPMLDPRP | -0.0137 |
| RRIRTRPPRLPRPRPRPMLQPRP | 0.00738 |
| RRIRTRPPRLPRPRPRPMNCPRP | -0.0645 |
| RRIRTRPPRLPRPRPRPMPAPRP | 0.102 |
| RRIRTRPPRLPRPRPRPMQNPRP | -0.0815 |
| RRIRTRPPRLPRPRPRPMRFPRP | 0.00408 |
| RRIRTRPPRLPRPRPRPMTEPRP | -0.0359 |
| RRIRTRPPRLPRPRPRPMVEPRP | 0.0887 |
| RRIRTRPPRLPRPRPRPMWFPRP | 0.253 |
| RRIRTRPPRLPRPRPRPNAAPRP | 0.371 |
| RRIRTRPPRLPRPRPRPNANPRP | -0.0879 |
| RRIRTRPPRLPRPRPRPNATPRP | 0.469 |
| RRIRTRPPRLPRPRPRPNAWPRP | 0.0447 |
| RRIRTRPPRLPRPRPRPNCQPRP | -0.369 |

| Sequence | shrunken log2 fold change |
| --- | --- |
| RRIRTRPPRLPRPRPRPNDAPRP | -0.036 |
| RRIRTRPPRLPRPRPRPNDDPRP | -0.519 |
| RRIRTRPPRLPRPRPRPNDIPRP | -0.873 |
| RRIRTRPPRLPRPRPRPNENPRP | 1.59 |
| RRIRTRPPRLPRPRPRPNEVPRP | 0.0231 |
| RRIRTRPPRLPRPRPRPNFGPRP | -0.0173 |
| RRIRTRPPRLPRPRPRPNIYPRP | 0.0647 |
| RRIRTRPPRLPRPRPRPNLFPRP | 0.0121 |
| RRIRTRPPRLPRPRPRPNLLPRP | -0.245 |
| RRIRTRPPRLPRPRPRPNLMPRP | -0.164 |
| RRIRTRPPRLPRPRPRPNMLPRP | -0.45 |
| RRIRTRPPRLPRPRPRPNMWPRP | -0.365 |
| RRIRTRPPRLPRPRPRPNNKPRP | -0.474 |
| RRIRTRPPRLPRPRPRPNNLPRP | -0.252 |
| RRIRTRPPRLPRPRPRPNNYPRP | -0.754 |
| RRIRTRPPRLPRPRPRPNPPPRP | 0.199 |
| RRIRTRPPRLPRPRPRPNQCPRP | 0.00866 |
| RRIRTRPPRLPRPRPRPNQHPRP | -0.354 |
| RRIRTRPPRLPRPRPRPNRCPRP | -0.189 |
| RRIRTRPPRLPRPRPRPNRDPRP | -0.0614 |
| RRIRTRPPRLPRPRPRPNRSPRP | -0.069 |
| RRIRTRPPRLPRPRPRPNSIPRP | -0.0867 |

| Sequence | shrunken log2 fold change |
| --- | --- |
| RRIRTRPPRLPRPRPRPNSSPRP | -0.13 |
| RRIRTRPPRLPRPRPRPNVKPRP | -0.137 |
| RRIRTRPPRLPRPRPRPNWLPRP | 0.295 |
| RRIRTRPPRLPRPRPRPNYAPRP | 0.0202 |
| RRIRTRPPRLPRPRPRPNYDPRP | -0.493 |
| RRIRTRPPRLPRPRPRPPAQPRP | 0.608 |
| RRIRTRPPRLPRPRPRPPARPRP | 0.546 |
| RRIRTRPPRLPRPRPRPPASPRP | 1.72 |
| RRIRTRPPRLPRPRPRPPAWPRP | 0.663 |
| RRIRTRPPRLPRPRPRPPCRPRP | 0.121 |
| RRIRTRPPRLPRPRPRPPDIPRP | -0.118 |
| RRIRTRPPRLPRPRPRPPDKPRP | -0.146 |
| RRIRTRPPRLPRPRPRPPEMPRP | 0.237 |
| RRIRTRPPRLPRPRPRPPFCPRP | 0.188 |
| RRIRTRPPRLPRPRPRPPFPPRP | 0.256 |
| RRIRTRPPRLPRPRPRPPIIPRP | 0.0882 |
| RRIRTRPPRLPRPRPRPPIRPRP | -0.1 |
| RRIRTRPPRLPRPRPRPPKTPRP | 0.142 |
| RRIRTRPPRLPRPRPRPPLWPRP | 0.689 |
| RRIRTRPPRLPRPRPRPPNRPRP | 0.135 |
| RRIRTRPPRLPRPRPRPPPDPRP | 0.58 |
| RRIRTRPPRLPRPRPRPPQEPRP | 0.0383 |

| Sequence | shrunken log2 fold change |
| --- | --- |
| RRIRTRPPRLPRPRPRPPRIPRP | 0.27 |
| RRIRTRPPRLPRPRPRPPRVPRP | 0.334 |
| RRIRTRPPRLPRPRPRPPSQPRP | 0.269 |
| RRIRTRPPRLPRPRPRPPVNPRP | 0.0698 |
| RRIRTRPPRLPRPRPRPPWYPRP | -0.166 |
| RRIRTRPPRLPRPRPRPPYHPRP | -0.541 |
| RRIRTRPPRLPRPRPRPPYRPRP | -0.187 |
| RRIRTRPPRLPRPRPRPPYYPRP | -0.535 |
| RRIRTRPPRLPRPRPRPQCWPRP | -0.19 |
| RRIRTRPPRLPRPRPRPQEDPRP | -0.01 |
| RRIRTRPPRLPRPRPRPQFIPRP | -0.07 |
| RRIRTRPPRLPRPRPRPQHNPRP | -0.324 |
| RRIRTRPPRLPRPRPRPQHQPRP | -0.132 |
| RRIRTRPPRLPRPRPRPQINPRP | -0.348 |
| RRIRTRPPRLPRPRPRPQLGPRP | -0.0516 |
| RRIRTRPPRLPRPRPRPQLHPRP | 0.0211 |
| RRIRTRPPRLPRPRPRPQMGPRP | -0.0284 |
| RRIRTRPPRLPRPRPRPQNFPRP | -0.18 |
| RRIRTRPPRLPRPRPRPQNKPRP | -0.664 |
| RRIRTRPPRLPRPRPRPQNSPRP | -1.19 |
| RRIRTRPPRLPRPRPRPQQAPRP | -0.0444 |
| RRIRTRPPRLPRPRPRPQRFPRP | 0.00548 |

| Sequence | shrunken log2 fold change |
| --- | --- |
| RRIRTRPPRLPRPRPRPQRKPRP | 0.138 |
| RRIRTRPPRLPRPRPRPQSKPRP | -0.209 |
| RRIRTRPPRLPRPRPRPQSNPRP | -0.581 |
| RRIRTRPPRLPRPRPRPQSVPRP | -0.104 |
| RRIRTRPPRLPRPRPRPQSWPRP | 0.234 |
| RRIRTRPPRLPRPRPRPQSYPRP | -0.0281 |
| RRIRTRPPRLPRPRPRPQTVPRP | -0.216 |
| RRIRTRPPRLPRPRPRPQVFPRP | -0.0243 |
| RRIRTRPPRLPRPRPRPQVTPRP | 0.304 |
| RRIRTRPPRLPRPRPRPQYWPRP | -0.163 |
| RRIRTRPPRLPRPRPRPRGEPRP | 0.152 |
| RRIRTRPPRLPRPRPRPRGHPRP | 0.182 |
| RRIRTRPPRLPRPRPRPRKLPRP | -0.073 |
| RRIRTRPPRLPRPRPRPRKQPRP | 0.0743 |
| RRIRTRPPRLPRPRPRPRLAPRP | 0.453 |
| RRIRTRPPRLPRPRPRPRLSPRP | -0.0634 |
| RRIRTRPPRLPRPRPRPRLVPRP | 0.0412 |
| RRIRTRPPRLPRPRPRPRMKPRP | 0.0156 |
| RRIRTRPPRLPRPRPRPRPEPRP | 0.238 |
| RRIRTRPPRLPRPRPRPRPNPRP | 0.267 |
| RRIRTRPPRLPRPRPRPRPSPRP | 0.703 |
